From patent US12077763B2, “RNA-based control of powdery mildew” (Greenlight Biosciences, Inc., priority 2021, dated 2024)

B1: GS2382 (nucleic acid)
sense: AAAAGUUAUGGCGGAAAUCACUAUAUAUACUGCUUCACAUGCCUUACAAGGAGAAGAGGUCCGUGAGAAUUUUGACUCAUCUUUUGCCGCUCUUUAUCAUGAUCUUGAUAUGGGAUUUACACCGAUCAACUUUACAUUUUACUGGGCACCUCUACCUUGGAAUCGUGCUCGUGAUCAUGCCCAAAGAACUGUUGCUAGGA
antisense: UCCUAGCAACAGUUCUUUGGGCAUGAUCACGAGCACGAUUCCAAGGUAGAGGUGCCCAGUAAAAUGUAAAGUUGAUCGGUGUAAAUCCCAUAUCAAGAUCAUGAUAAAGAGCGGCAAAAGAUGAGUCAAAAUUCUCACGGACCUCUUCUCCUUGUAAGGCAUGUGAAGCAGUAUAUAUAGUGAUUUCCGCCAUAACUUUU
B2: GS2655 (nucleic acid)
sense: UGCCAUUCGCGUAUUUUUCUAUUCGAAGACACUCAGUCCUUCAGAGAUUAUUCCAGAAUUGUAUCCUCAAUUACAAUCUUAUUUUUACACAAUACCUCUUUCCCCUAAAUAAAGUACUACAAUGUCAAAUUCCGAAUUAGCAGUUUCGUAUGCUGCCCUUAUCCUCGCAGAUGACGGGGUUGACGUCACAGCAGAUAAGCUACAAUCAUUAAUCAAGGCUGCUGGUAUUGAUGAUGUUGAGCCAAUUUGGACUACUUUAUUUGCCAAGGCUCUCGAUGGCAAAGAUGUGAAAGAUAUGCUCCUGAAUGUAG
antisense: CUACAUUCAGGAGCAUAUCUUUCACAUCUUUGCCAUCGAGAGCCUUGGCAAAUAAAGUAGUCCAAAUUGGCUCAACAUCAUCAAUACCAGCAGCCUUGAUUAAUGAUUGUAGCUUAUCUGCUGUGACGUCAACCCCGUCAUCUGCGAGGAUAAGGGCAGCAUACGAAACUGCUAAUUCGGAAUUUGACAUUGUAGUACUUUAUUUAGGGGAAAGAGGUAUUGUGUAAAAAUAAGAUUGUAAUUGAGGAUACAAUUCUGGAAUAAUCUCUGAAGGACUGAGUGUCUUCGAAUAGAAAAAUACGCGAAUGGCA
B3: GS2384 (nucleic acid)
sense: AUGGGAUUUACACCGAUCAACUUUACAUUUUACUGGGCACCUCUACCUUGGAAUCGUGCUCGUGAUCAUGCCCAAAGAACUGUUGCUAGGACUUAUAUGAAUAUAAUCCAAGCUCGUAGAGAAGAGAAAAGAAGCGGUGAGAAUAAGCAUGAUAUAAUGUGGGAGUUGAUGCGUUCCACUUAUAAAGACGGGACUCCGGU
antisense: ACCGGAGUCCCGUCUUUAUAAGUGGAACGCAUCAACUCCCACAUUAUAUCAUGCUUAUUCUCACCGCUUCUUUUCUCUUCUCUACGAGCUUGGAUUAUAUUCAUAUAAGUCCUAGCAACAGUUCUUUGGGCAUGAUCACGAGCACGAUUCCAAGGUAGAGGUGCCCAGUAAAAUGUAAAGUUGAUCGGUGUAAAUCCCAU
B4: GS1894: dsRNA trigger SEQ ID NO 123; gene target eka-like_protein (nucleic acid)
chain: AAAGGTAGTGGCTCTGGGTCTGGAAAAGGGAAAAATGTAGAAAAGAATGTTGCTGTTGCAACCCCTAAATTACCAAAACCTCCCCAAACCTCACTGAACACATGGGTTACTGTGGCTCGAAATGGTCAGAAGAAGGCCCGAGTTCTTCAAAATAATAATATACACACCACCCCGATGAGTAAAATAAGACCACGAGTATCAATTGTGGAGAGAGCCTCAGCTGCTCCGACAGATAATAGGCTGTTTCTCCGTCTCCCCCAAGAACATGAATGGCGAAAGCTTTCTCCTGCTGAAATACGTAAGGTAATTTTAAAGAAACTTTCAATCTCACCCGTATTGGTTGGGAATACGTGAGGTAATTGTACATTGGTTGGGAAAATTAA
B5: ES46: dsRNA trigger SEQ ID NO 110; gene target Hypotethical effector (nucleic acid)
DNA: TTGGAAGAACCGCCAGAAAACCCAATCAGATACCGATCTCTACTCGGATCATCATTTCACTTCGCAACATGCAATTAACGGTTATGTACCTTCTATAGGCTTTGAATCCGATGGTTATGGGATTAGTAAGAGATCTAATCGTAAAACTGTTCATGGATATTACTGTGGGAGCTCAAAACATGAGCAGCATTTTTATGAGCAGGACTATATTAAAATATATACATGTCAAACATAATGCAAACTTAATTCCATATAGTTAACTGAAATGGTCATTTTTTCACAGCTTTAACTCAATTCCTTTTGAAGAGTGATAACTTTTACTTGCAATTCCTAATTAAAATAAGAGCACAAGCCTTAATTTTTGGATCTAAAATATCAATGCCAACCCCTTGTGCACTGTTGGTAGTGAAAATCTTCGTTATTTGTGACAACATCCACAATCTCGCACTGCGTATTGATA
B6: GS2666 (nucleic acid)
sense: UUCGGCAUAUCAACGUAAAAAAAAAAUAAAUCGACACAAAACAGCUCAAUACCGUAGUUUAUCACCAUGCUUACAAUUACGUAAACGGAGGUCUGCAAAGAGCCUUAAGUCUUUGGAAAUAUCAUGCAGUAGUGGUAUUGAAAAAGGAACCACUAGCUUCGUAAACUAUACCCCAGAAGAUUCCCAGAAGAUUUUAAAUGGAGUUGCUCCGUCUGGGAGUAACAAGACCAAAGCUCGAAGGGAGAAAGAGGCCUUGGAAAAACGCCAAAAGUUAU
antisense: AUAACUUUUGGCGUUUUUCCAAGGCCUCUUUCUCCCUUCGAGCUUUGGUCUUGUUACUCCCAGACGGAGCAACUCCAUUUAAAAUCUUCUGGGAAUCUUCUGGGGUAUAGUUUACGAAGCUAGUGGUUCCUUUUUCAAUACCACUACUGCAUGAUAUUUCCAAAGACUUAAGGCUCUUUGCAGACCUCCGUUUACGUAAUUGUAAGCAUGGUGAUAAACUACGGUAUUGAGCUGUUUUGUGUCGAUUUAUUUUUUUUUUACGUUGAUAUGCCGAA
B7: GS2656 (nucleic acid)
sense: GCCCGCUUCCUCAGCUAUUCUUGCCUGUUUUGCGUUGACCACAUCCAUAAUUACGCCACCCUUCAACAUGCGAGCCAGGCCGGUUUUGACCCCAAAAUUCUUUUGUCCCACAGGCUUUGAGGUGCCUUUAUUGAUUCCAUUAUUAACGCCACCAUCAGCAGAGACAGGAAUAGGGAUUUCAGUGGCCAUCUUGCAAUUAUCUCAUAAAUAGUGGUAUUAGUUAAGCGCCCGAAGGUUCUUGUCAAAUUCUUCUUGCAAAUAUUAGUAUCAAGAGUUUGCUGAAGAUAUAAAACUAAGAAACGAAUUGUAAUUAACAAAUGGAUUGUAAAAUUUCUCAAAAUGACCGCCUGGUCGAUAUGACUAUGACGUUUAGAGCCAGGAAGUGUUGCAGGAAAAA
antisense: UUUUUCCUGCAACACUUCCUGGCUCUAAACGUCAUAGUCAUAUCGACCAGGCGGUCAUUUUGAGAAAUUUUACAAUCCAUUUGUUAAUUACAAUUCGUUUCUUAGUUUUAUAUCUUCAGCAAACUCUUGAUACUAAUAUUUGCAAGAAGAAUUUGACAAGAACCUUCGGGCGCUUAACUAAUACCACUAUUUAUGAGAUAAUUGCAAGAUGGCCACUGAAAUCCCUAUUCCUGUCUCUGCUGAUGGUGGCGUUAAUAAUGGAAUCAAUAAAGGCACCUCAAAGCCUGUGGGACAAAAGAAUUUUGGGGUCAAAACCGGCCUGGCUCGCAUGUUGAAGGGUGGCGUAAUUAUGGAUGUGGUCAACGCAAAACAGGCAAGAAUAGCUGAGGAAGCGGGC
B8: GS1895: dsRNA trigger SEQ ID NO 125; gene target eka-like_protein (nucleic acid)
chain: ACGCGCGGCTAATGATATGCACAATGCACGGTGATTAGTAGCATAGATAGTACATTAGCGACTTTTACAAAAGAAGTAGAGATAGAAGAGGCTGTAGCTTTCAAAGCGTACCTCAAACTTGCAATAGCAAACTTTGCAGCAGTAGATTCGTCCCCTCCTCCACCTCGTGTCCCATTACATACAAGACCGAATAAAGGTAACGGAAATGATAGCAGTAAAGGGAAAAGTAAAGAGAAAAACTTGTCAAAGATAGCAGTCGCAATACCTCGTATTGCTTGTAATCGAATTATCATGGGCCACAGTAATCAAAATCCAAATCTGGGTACGATCAAAGAAATAGAATTACCAAAAATTATTAAAAATATGATATA
B9: GS2660 (nucleic acid)
sense: GUCGUAAUGAUCUUGGCCAAUAAUUCGAGGGUCAAGCAUUCGAGAUUUAGACUCAAGGGGAUCUACCGCUGGAUAGAUACCUAAUUCUGAAAUACCACGUGAUAAUACAGUAGUUGCAUCUAAAUGAGCAAACGUUGUUGCGGGUGCUGGAUCCGUCAGAUCAUCAGCUGGCACGUAAACAGCUUGCACUGAAGUGAUUGAGCCUUUGGUAGUUGUUGUAAUUCGCUCUUGCAUAAGACCCAUAUCUACUGCAAGUGUAGGUUGAUAACCAACUGCAGAGGGAAUACGUCCGAGAAGAGCAGAGACUUCGGAGCCGGCCUGAGUGAAACGAAAAAUAUUAUCAAUGAAAAGUAAUACAUCUUGUCCUUCUUCAUCACGGAAAUACUCAGCAAUAGUUA
antisense: UAACUAUUGCUGAGUAUUUCCGUGAUGAAGAAGGACAAGAUGUAUUACUUUUCAUUGAUAAUAUUUUUCGUUUCACUCAGGCCGGCUCCGAAGUCUCUGCUCUUCUCGGACGUAUUCCCUCUGCAGUUGGUUAUCAACCUACACUUGCAGUAGAUAUGGGUCUUAUGCAAGAGCGAAUUACAACAACUACCAAAGGCUCAAUCACUUCAGUGCAAGCUGUUUACGUGCCAGCUGAUGAUCUGACGGAUCCAGCACCCGCAACAACGUUUGCUCAUUUAGAUGCAACUACUGUAUUAUCACGUGGUAUUUCAGAAUUAGGUAUCUAUCCAGCGGUAGAUCCCCUUGAGUCUAAAUCUCGAAUGCUUGACCCUCGAAUUAUUGGCCAAGAUCAUUACGAC

Each molecule was assayed on E. necator (assay: Leaf disc assay, dry inoculum (settling tower), decrease in disease severity / hyphal growth (Example 2)). Conditions: decrease in disease severity (hyphal growth) relative to untreated control; time point 1 (untreated control hyphal growth ≥50%); value ± SE.

For B1, which “% decrease =/− SE TP1” value is on record?
Its value is 17 ± 0%.

Which “% decrease =/− SE TP1” value does the source give for B2 here?
Its value is 26 ± 9%.

Which “% decrease =/− SE TP1” value does the source give for B3 here?
The value was 20 ± 0%.

Which “% decrease =/− SE TP1” value does the source give for B4 here?
Its value is 4 ± 6%.

For B5, which “% decrease =/− SE TP1” value is on record?
The value was 6 ± 0%.

How did the “% decrease =/− SE TP1” value turn out when B6 was run?
The value was 14 ± 7%.

B7 was tested. Which “% decrease =/− SE TP1” value did it give?
Its value is 34 ± 5%.

Same assay, conditions: decrease in disease severity (hyphal growth) relative to untreated control; time point 2; value ± SE

B1 was tested. Which “% decrease =/− SE TP2” value did it give?
The value was 4 ± 0%.

B2 was tested. Which “% decrease =/− SE TP2” value did it give?
The value was 9 ± 9%.

Which “% decrease =/− SE TP2” value does the source give for B3 here?
Its value is 8 ± 0%.

For B8, which “% decrease =/− SE TP2” value is on record?
Its value is 4 ± 7%.

B9 was tested. Which “% decrease =/− SE TP2” value did it give?
The value was 24 ± 8%.

B4 was tested. Which “% decrease =/− SE TP2” value did it give?
Its value is 0 ± 6%.

Which “% decrease =/− SE TP2” value does the source give for B5 here?
Its value is 5 ± 0%.

For B7, which “% decrease =/− SE TP2” value is on record?
The value was 46 ± 6%.
